Data: patent US20230406950A1 (LYVGEN BIOPHARMA, published 2023)

Key:
[1] = biological target: T1, human PD-L1 expressed on cells (human, UniProt Q9NZQ7 19-290); assay: flow cytometry (FACS), MFI, CHO cells expressing human PD-L1
T1 construct: whole, on cells; also called human PD-L1 expressed on CHO cells; Raji-PD-L1 cells
Protocol: (§1) Exemplary anti-PD-1/CD137 bi-specific antibodies were analyzed by FACS for their binding properties to human PD-1 and/or human CD137 expressed on CHO cells. Briefly, cultured cells were harvested, counted and cell viability was evaluated using the Trypan Blue exclusion method. Viable cells were then adjusted to 2×10⁶ cells per mL in PBS containing 2% BSA. 100 μL of this cell suspension were further aliquoted per well into a V-bottom 96-well plate. […] After incubation for 2 hours at 4° C., cells were centrifuged (3 min, 1000× g), washed with 250 μL/well BSA-containing FACS Stain Buffer, resuspended and incubated for an additional 1 hour at 4° C. with 100 μL/well fluorochrome-conjugated anti-IgG antibody for detection of the bisepecific antibody. Cells were then washed with 250 μL/well BSA-containing FACS Stain Buffer, resuspended in 100 μL/well FACS Stain Buffer, acquired and analyzed using a FACS machine. Binding of the bispecific antibodies to human PD-1 or human CD137 expressing CHO cells were evaluated and the mean fluorescence intensity is plotted in histograms or dot plots.
Exemplary anti-PD-L1/CD137 bi-specific antibodies were analyzed by FACS for their binding properties to human PD-L1 or human CD137 expressed on CHO cells, following the procedures disclosed in Examples 1 above.

[2] = biological target: T2, Human PD-L1 ECD fragment (His tag) (human, UniProt Q9NZQ7 19-238); assay: bridging ELISA: human CD137 ECD (mouse IgG2a Fc tag) coated, antibody titrated, then human PD-L1 ECD (His tag), HRP anti-His detection; A450-A620
T2 construct: extracellular domain; also called recombinant human PD-L1; not shown: His tag
Protocol: (§2) Exemplary anti-PD-L1/CD137 bi-specific antibodies were analyzed by ELISA for their simultaneous binding to recombinant human PD-L1 and human CD137. Briefly, the ECD portion of human CD137 protein (mouse IgG2a Fc tag) was diluted and coated onto an ELISA plate with a volume of 100 μL/well by incubation at 4° C. overnight. The next day, the plate was blocked with PBST-BSA buffer, then serially diluted samples of anti-PD-L1/CD137 bi-specific antibodies were pipetted into appropriate wells at 50 μL/well, and the plate was incubated for 1 h followed by Washing. Human PD-L1 ECD fragment (His tag) was added into the plate at 50 μL/well. After 1-hour incubation at room temperature, HRP-conjugated anti-His tag antibody was added into the plate at 100 μL/well and […]. The plate was incubated for 1 hour at room temperature followed by washing. TMB substrate solution was added at 100 μL/well and the color development was stopped by adding 100 uL/well Stop Solution (2N H₂SO₄). Absorbance at 450 nm and 620 nm was read by Tecan F200 Pro plate reader. GraphPad 7.0, “[Agonist] vs. response—Variable slope (four parameters)” was used to plot the binding data and calculate binding EC50 values.

[3] = biological target: T3, ECD portion of human CD137 protein (mouse IgG2a Fc tag) (human, UniProt Q07011 24-186); assay: as above
T3 construct: extracellular domain; also called recombinant human CD137; not shown: mouse IgG2a Fc tag
Protocol: as §2

[4] = biological target: T4, human CD137 expressed on cells (human, UniProt Q07011 24-255); assay: FACS on CHO cells expressing human CD137 (MFI)
T4 construct: whole, on cells; also called 4-1BB; TNFRSF9
Protocol: as §1, with “Anti-GITR/CD137” for “Exemplary anti-PD-1/CD137”, “GITR” for “PD-1”

T1 sequence (Q9NZQ7 19-290): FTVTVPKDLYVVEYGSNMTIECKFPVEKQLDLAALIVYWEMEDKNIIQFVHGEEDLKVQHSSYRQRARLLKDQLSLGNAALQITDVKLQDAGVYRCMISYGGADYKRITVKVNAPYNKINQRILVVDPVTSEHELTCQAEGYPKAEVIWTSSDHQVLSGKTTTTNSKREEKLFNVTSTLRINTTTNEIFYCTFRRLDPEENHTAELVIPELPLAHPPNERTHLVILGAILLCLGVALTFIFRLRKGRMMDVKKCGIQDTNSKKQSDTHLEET
T2 sequence (Q9NZQ7 19-238): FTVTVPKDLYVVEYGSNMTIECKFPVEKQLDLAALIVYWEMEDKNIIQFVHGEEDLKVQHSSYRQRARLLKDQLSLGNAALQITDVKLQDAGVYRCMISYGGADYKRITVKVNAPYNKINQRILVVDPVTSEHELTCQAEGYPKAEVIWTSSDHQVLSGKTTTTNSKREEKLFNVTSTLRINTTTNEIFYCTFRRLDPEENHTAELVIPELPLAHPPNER
T4 sequence (Q07011 24-255): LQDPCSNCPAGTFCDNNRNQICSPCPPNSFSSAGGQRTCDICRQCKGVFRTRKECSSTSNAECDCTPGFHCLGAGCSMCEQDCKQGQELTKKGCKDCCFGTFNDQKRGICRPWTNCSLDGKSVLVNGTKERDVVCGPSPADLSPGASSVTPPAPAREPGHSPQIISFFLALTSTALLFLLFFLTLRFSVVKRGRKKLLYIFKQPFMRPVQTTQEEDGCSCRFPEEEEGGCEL

| Binder | binding result [1] | binding result [2] | EC50 (read off the curve) [3] [µg/mL] | EC50 (read off the curve) [4] [µg/mL] |
| --- | --- | --- | --- | --- |
| Ly347 (bispecific antibody, human IgG1, kappa, Anti-PD-L1/CD137: Ly076 heavy chain; Ly076 light chain fused to Ly1630 scFv (VH-VL)) heavy: QVQLVQSGAEVKKPGASVKVSCKASGYTFTDFWMSWVRQAPGQGLEWMGQIYPNTGTTHSNEKFKGRVTMTRDTSTSTVYMELSSLRSEDTAVYYCARSYHISTTPNWFAYWGQGTLVTVSSASTKGPSVFPLAPSSKSTSGGTAALGCLVKDYFPEPVTVSWNSGALTSGVHTFPAVLQSSGLYSLSSVVTVPSSSLGTQTYICNVNHKPSNTKVDKKVEPKSCDKTHTCPPCPAPELLGPSVFLFPPKPKDTLMISRTPEVTCVVVDVSHEDPEVKFNWYVDGVEVHNAKTKPREEQYNSTYRVVSVLTVLHQDWLNGKEYKCKVSNKALPAPIEKTISKAKGQPREPQVYTLPPSREEMTKNQVSLTCLVKGFYPSDIAVEWESNGQPENNYKTTPPVLDSDGSFFLYSKLTVDKSRWQQGNVFSCSVMHEALHNHYTQKSLSLSPG light: DIQMTQSPSSLSASVGDRVTITCKASQNVYKKLEWYQQKPGKVPKVLIYHTNILQTGVPSRFSGSGSGTDYTLTISSLQPEDVATYYCYQWNSGPTFGGGTKVEIKRTVAAPSVFIFPPSDEQLKSGTASVVCLLNNFYPREAKVQWKVDNALQSGNSQESVTEQDSKDSTYSLSSTLTLSKADYEKHKVYACEVTHQGLSSPVTKSFNRGECGGGGSGGGGSGGGGSGGGGSQVQLVQSGAEVKKPGASVKVSCKASGYTFAGFEMHWVRQAPGQGLEWMGAIDPKTGGTDYNQKFKDRVTMTRDTSISTAYMELSRLRSDDTAVYYCARDLGYFDVWGQGTLVTVSSGGGGSGGGGSGGGGSGGGGSDIQMTQSPSSLSASVGDRVTITCRASQDIRSNLNWYQQKPGGAVKLLIYYTSRLHSGVPSRFSGSGSGTDYTLTISSLQPEDFATYFCQQSEKLPRTFGGGTKVEIR | binds | binds | ~0.2 | – |
| Ly759 (bispecific antibody, human IgG1, kappa, Anti-GITR/CD137: TM685-derived heavy chain fused to Ly1630 scFv (VH-VL); TM685 light chain) heavy: QVQLQESGPGLVKPSETLSLTCTVSGFSLTSYNVHWIRQPPGKGLEWIGVIWSGVRTDYNSVLKPRVTISVDTSKNQFSLKLSSVTAADTAVYYCARGTYDDNYHDVMDAWGQGTLVTVSSASTKGPSVFPLAPSSKSTSGGTAALGCLVKDYFPEPVTVSWNSGALTSGVHTFPAVLQSSGLYSLSSVVTVPSSSLGTQTYICNVNHKPSNTKVDKKVEPKSCDKTHTCPPCPAPELLGPSVFLFPPKPKDTLMISRTPEVTCVVVDVSHEDPEVKFNWYVDGVEVHNAKTKPREEQYNSTYRVVSVLTVLHQDWLNGKEYKCKVSNKALPAPIEKTISKAKGQPREPQVYTLPPSREEMTKNQVSLTCLVKGFYPSDIAVEWESNGQPENNYKTTPPVLDSDGSFFLYSKLTVDKSRWQQGNVFSCSVMHEALHNHYTQKSLSLSPGGGGGSGGGGSGGGGSGGGGSQVQLVQSGAEVKKPGASVKVSCKASGYTFAGFEMHWVRQAPGQGLEWMGAIDPKTGGTDYNQKFKDRVTMTRDTSISTAYMELSRLRSDDTAVYYCARDLGYFDVWGQGTLVTVSSGGGGSGGGGSGGGGSGGGGSDIQMTQSPSSLSASVGDRVTITCRASQDIRSNLNWYQQKPGGAVKLLIYYTSRLHSGVPSRFSGSGSGTDYTLTISSLQPEDFATYFCQQSEKLPRTFGGGTKVEIR light: EIVLTQSPATLSLSPGERATLSCRASKSVRTGMHWYQQKPGQAPRLLIYGASNLESGIPARFSGSGSGTDFTLTISSLEPEDFAVYYCQQSWNHFTFGQGTKLEIKRTVAAPSVFIFPPSDEQLKSGTASVVCLLNNFYPREAKVQWKVDNALQSGNSQESVTEQDSKDSTYSLSSTLTLSKADYEKHKVYACEVTHQGLSSPVTKSFNRGEC | – | – | – | ~0.6 |
| Ly346 (bispecific antibody, human IgG1, kappa, Anti-PD-L1/CD137: Ly076 heavy chain fused to Ly1630 scFv (VH-VL); Ly076 light chain) heavy: QVQLVQSGAEVKKPGASVKVSCKASGYTFTDFWMSWVRQAPGQGLEWMGQIYPNTGTTHSNEKFKGRVTMTRDTSTSTVYMELSSLRSEDTAVYYCARSYHISTTPNWFAYWGQGTLVTVSSASTKGPSVFPLAPSSKSTSGGTAALGCLVKDYFPEPVTVSWNSGALTSGVHTFPAVLQSSGLYSLSSVVTVPSSSLGTQTYICNVNHKPSNTKVDKKVEPKSCDKTHTCPPCPAPELLGPSVFLFPPKPKDTLMISRTPEVTCVVVDVSHEDPEVKFNWYVDGVEVHNAKTKPREEQYNSTYRVVSVLTVLHQDWLNGKEYKCKVSNKALPAPIEKTISKAKGQPREPQVYTLPPSREEMTKNQVSLTCLVKGFYPSDIAVEWESNGQPENNYKTTPPVLDSDGSFFLYSKLTVDKSRWQQGNVFSCSVMHEALHNHYTQKSLSLSPGGGGGSGGGGSGGGGSGGGGSQVQLVQSGAEVKKPGASVKVSCKASGYTFAGFEMHWVRQAPGQGLEWMGAIDPKTGGTDYNQKFKDRVTMTRDTSISTAYMELSRLRSDDTAVYYCARDLGYFDVWGQGTLVTVSSGGGGSGGGGSGGGGSGGGGSDIQMTQSPSSLSASVGDRVTITCRASQDIRSNLNWYQQKPGGAVKLLIYYTSRLHSGVPSRFSGSGSGTDYTLTISSLQPEDFATYFCQQSEKLPRTFGGGTKVEIR light: DIQMTQSPSSLSASVGDRVTITCKASQNVYKKLEWYQQKPGKVPKVLIYHTNILQTGVPSRFSGSGSGTDYTLTISSLQPEDVATYYCYQWNSGPTFGGGTKVEIKRTVAAPSVFIFPPSDEQLKSGTASVVCLLNNFYPREAKVQWKVDNALQSGNSQESVTEQDSKDSTYSLSSTLTLSKADYEKHKVYACEVTHQGLSSPVTKSFNRGEC | binds | binds | ~0.1 | – |
| Ly757 (bispecific antibody, human IgG1, kappa, Anti-GITR/CD137: Ly1630 heavy chain; Ly1630 light chain fused to TM685 scFv (VH-VL)) heavy: QVQLVQSGAEVKKPGASVKVSCKASGYTFAGFEMHWVRQAPGQGLEWMGAIDPKTGGTDYNQKFKDRVTMTRDTSISTAYMELSRLRSDDTAVYYCARDLGYFDVWGQGTLVTVSSASTKGPSVFPLAPSSKSTSGGTAALGCLVKDYFPEPVTVSWNSGALTSGVHTFPAVLQSSGLYSLSSVVTVPSSSLGTQTYICNVNHKPSNTKVDKKVEPKSCDKTHTCPPCPAPELLGPSVFLFPPKPKDTLMISRTPEVTCVVVDVSHEDPEVKFNWYVDGVEVHNAKTKPREEQYNSTYRVVSVLTVLHQDWLNGKEYKCKVSNKALPAPIEKTISKAKGQPREPQVYTLPPSREEMTKNQVSLTCLVKGFYPSDIAVEWESNGQPENNYKTTPPVLDSDGSFFLYSKLTVDKSRWQQGNVFSCSVMHEALHNHYTQKSLSLSPGK light: DIQMTQSPSSLSASVGDRVTITCRASQDIRSNLNWYQQKPGGAVKLLIYYTSRLHSGVPSRFSGSGSGTDYTLTISSLQPEDFATYFCQQSEKLPRTFGGGTKVEIRRTVAAPSVFIFPPSDEQLKSGTASVVCLLNNFYPREAKVQWKVDNALQSGNSQESVTEQDSKDSTYSLSSTLTLSKADYEKHKVYACEVTHQGLSSPVTKSFNRGECGGGGSGGGGSGGGGSGGGGSQVQLQESGPGLVKPSETLSLTCTVSGFSLTSYNVHWIRQPPGKGLEWIGVIWSGVRTDYNSVLKPRVTISVDTSKNQFSLKLSSVTAADTAVYYCARGTYDDNYHDVMDAWGQGTLVTVSSGGGGSGGGGSGGGGSGGGGSEIVLTQSPATLSLSPGERATLSCRASKSVRTGMHWYQQKPGQAPRLLIYGASNLESGIPARFSGSGSGTDFTLTISSLEPEDFAVYYCQQSWNHFTFGQGTKLEIK | – | – | – | ~0.2 |
